Results on one substance are retold here after patent publication US20200291112A1.

The assay concerns the target Human GPA33 (Novoprotein), recombinant protein immobilized on CM5 chips (human) (UniProt Q99795). The assay is described as follows: SPR (Biacore T100), GPA33 recombinant protein immobilized on CM5 chip, antibody flowed over. On the technique in general: SPR reads the build-up and loss of mass on a sensor chip optically.

Human GPA33 (Novoprotein), recombinant protein immobilized on CM5 chips (human), sequence (Q99795 22-235 limits assumed): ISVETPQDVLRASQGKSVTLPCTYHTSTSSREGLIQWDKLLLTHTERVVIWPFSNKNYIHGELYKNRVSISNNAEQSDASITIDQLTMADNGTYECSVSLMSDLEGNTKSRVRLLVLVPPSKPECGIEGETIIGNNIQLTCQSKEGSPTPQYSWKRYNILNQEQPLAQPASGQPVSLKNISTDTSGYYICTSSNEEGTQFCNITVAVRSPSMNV

Consider “hA33-mC825 BsAb (original humanized hA33 in hA33-mC825 bispecific format, Cheal et al. 2016) (bispecific antibody)”, for which the Kd (in general, a measure of binding affinity in units of concentration) came to 1.59 nM; the koff (in general, the first-order rate constant of dissociation) is 0.00294 s⁻¹; the kon – broadly, the second-order rate constant of association – worked out at 1.85e+06 M⁻¹ s⁻¹.
